Reference: a protein production outcome set (Wang et al. 2014)

Assay: label from the status in PepcDB records

Sequence | protein production
MSDWTDGYVAEIDYTHGFYRELTPAHLRFCLLSRGLRAPEEDAGVSYCELGFGQGVTLNIVAATHPLASVWGTDFNPSHAAAARQLSLDGGTANTAFGDDSFEEFLAREDLPTFDFIVLHGIYSWISAENRAVIGRFLRRRLKVGGVVYISYNTLPGWAAIMPLRALMIDHAKAERAGMTERVDKALAFARTLAEGKAGYFTANPAVAPRLEKMATMSRNYLAHEYFNRDWTPLYHADVVRELTAAKLSFAASAHVTDLIDVVALSAPGREMLAAVNDPLFRETLRDYIVNQQFRRDIFTRGALRLTPLEQIEGLRAQRLALIVPRATIPEKATFPIGTTDLKPEIYGPFFDRLDKGPITLADLAAAEPALAPLPLATLHQAALVAISQGWVAPCPEAAGEGARRKATKRFNAAVLERARRSADLTVLASPVLGGGLGVDRIQQLFLLARAEKHPDPASFVWGILSSQGQRLVKEGKPLEDVDQNMAELRLRAQTFTDSFLPLYDRLGIV | failed
MSEAIVTIVVVPRERFSCTQASLESIYEHTKIPFKLIYVDGNSPTKVRKYLQKQAQEKNFQLIRTDYYLSPNHARNIGLSHVDTKYLVFLDNDVIVSPGWLQALVNCAETTGATVVGPLMCEKEPIHERIHFAGGESHIVIDVKGRRHLREKMYKQGHQVSELRSQLQQTETELAEFHCTLIRREIFEQIGYLDEEMLNTKEHLDFCMNVIQAGGKVYFEPDSLVTYVPGPPLEWSDLHFYMLRWSDAWTLASLQRIRAKWNLSEDGYFQTKYKKLGVRRVATIIKPFVRQVSFGNENKPLKRFLKNLDRKLNRFLTDRYTEMLPQRKLELPIIKKEISSVKEFTQV | failed
MSEDELYELLKTKYGFDEFRPGQLAVIQKLLAGQDVLAVLPTGTGKSLIYQLVGTALPGLVVVVSPLISLMQDQVARLNYQGEKQVAALTSQLDYGARQYLLNHLGQLKFLFISPEMLGQDIIQTALMQVQLALLVIDEAHCISTWGPDFRPDYRRLGQIRQRLQAPTTLMLTATATQRVRQDILTQLTVPDAQQILYSVNRPNIYLAVEQVNDEASKRATLQHLVTSARGPVIVYFTSKRQTDLIAEWLRTTTTLRVAAYHAGLATDDRFKIQQQFMAGQLDVICATSAFGMGINKADIRLVIHYHLPTTLADYVQEIGRAGRDGQQAMAIMLYAPGDENLVRNLNELTAATPNEIQQDYSRYQAQQPPTDDRSKVLQSYWLQGTPPTTVATIFADRQVAKERELRTLMSYVQTTTCHRTVMLTYFGEPAVTHTDQCCQLAAEPLPLAALGLMATHDEPTATIMSWDQHLAQLFLPNS | failed
MSEDLMDLSPEEGIERFLRHREPSVRESTMRNAKTRLRFFNEWCEERDIENLNNLTGRDLADFVAWRRGDIAALTLQKQLSTIREALRYWADIEGVDDGLAEKVHAPELPDGAESREVHLSADRAHQILDFLHDYRYASRDHVVFLILWKTAMRRSALRSLDVDDLRPDDYALVLEHRIDEGTKLKNGEDGERWVYLGPSDYQVVDDYLDNPDRYERTDDYGRKPLITSQHGRPAGDTIYKWVNKLTQPCVLNGCPHDADPSDPSTCEALGSRAAHSKCPSSRSPHGLRRGSITYHLNSDVSPEIVSERCDVSLEVLYEHYDVRTNQEKMAVRKKQLERI | failed
MSEDNFDDEFDGSLPSGPRHPMARRFRGYLPVVVDVETGGFNSATDALLEIAATTVGMDEKGFLFPEHTYFFRIEPFEGANIEPAALEFTGIKLDHPLRMAVQEEAALTEIFRGIRKALKANGCKRAILVGHNSSFDLGFLNAAVARTGIKRNPFHPFSSFDTATLAGLAYGQTVLAKACQAAGMEFDNREAHSARYDTEKTAELFCGIVNRWKEMGGWMDDDD | not failed
MSEDRTGHQGISGPATRAIHAGYRPDPATGAVNVPIYASSTFAQDGVGGLRGGFEYARTGNPTRAALEASLAAVEEGAFARAFSSGMAATDCALRAMLRPGDHVVIPDDAYGGTFRLIDKVFTRWDVQYTPVRLADLDAVGAAITPRTRLIWVETPTNPLLSIADITAIAELGTDRSAKVLVDNTFASPALQQPLRLGADVVLHSTTKYIGGHSDVVGGALVTNDEELDEEFAFLQNGAGAVPGPFDAYLTMRGLKTLVLRMQRHSENACAVAEFLADHPSVSSVLYPGLPSHPGHEIAARQMRGFGGMVSVRMRAGRRAAQDLCAKTRVFILAESLGGVESLIEHPSAMTHASTAGSQLEVPDDLVRLSVGIEDIADLLGDLEQALG | not failed
MSEFEGWIKWLEPVFLLWKPEDPGYERPAYRDWTKEEDEPKYSPEKELALLDKQILASDGFDIDFTHFRCVFNYHLAYLDSHEFVDEPETTRDLLERLSRKALDDYNQESVVKANFHFCCAIMFLITFEVVDPYDNLIKLFQTRVRHAEDIVTEYVFCRPKPNQGVECIGVKNNDGKDVQTNVKEQEIPCMYGWFLRVITITFTLQIGVGASICHKE | failed
MSEFIMNNLEQTARRWLEERGVTVEKIAELVYYLQSKYHPDLTMEECIENVNRVISKREVQNAILTGIQLDKLAEDGRLDEPLQSIIRRDEGLYGVDEILALSIVNVYGSIGFTNYGYIDKQKPGILQYLNDKSTGKCNTFLDDIVGAIAAAASSRLAHRAANAE | not failed
MSEFMQRFADLRDRKAYAEIVDALPYVKLMGTSMAEDEQGELRFELPFLQRNVGNTTLPALHGGLIGGFMESAAMIHLMWNRESLEAPKIVDFSLDYLRPGRPQTLFAQCEITKQGKRVAHVLIEAWQDDRSKPVAVARAHFLLTNLEHHHHHH | not failed
MSEFRLTQISDTHLGRRFPGLIANFHRVCEHIDADRPDLVINTGDVSFDGPTSRDDVVFAKGLHDALPVTCRYLPGNHDIGDNPTAIGPAPKPPVSEAYRQQFRDIIGEDHWSFEAAGWCFIGLNTLVMNSGLAFEAAQFDWLTQEIARTNGRPVALFLHKPVFLNLPDDPETPETSIRYVPQPARARLIEMFARVDLRLIASGHVHQRRDFTFRHTRHVWAPSVGFKINDQRQDRIAIKETGLVEYRFRGDSLEVRHLRAAGQIDIDIEEVLLQMGGEH | failed
MSEFTRVFNYKIKLIIAISLFFTQLISANASVEVNISVEQPEHHLANVELKFEQVNESKVNFYLPTWRTGRYETLNLANGIREFIAQDSQGNVLSWHKIDKNTWQVSDAKNKKITLTYQVYANQLAKRTRHIDDSHAFLDSSAVVMYSQASRSSEHIVQLSVPKLWKSFSGLESGNNSHQFIAHDYDQLVDSPIESGINEHYQFSVDNRQYELVIWGEGNYDSAKMVKDLQILVKQSKHVWQGYPFKRYVFMVHATSGARGATEHVNSTIIQRSRFKFSTRKDYLSFIAVAAHEFVHTWNVKQYRPKGIVPYDYQQENYSNLLWLVEGSTSYLQYQLLLRGNLMTTDEFFTALAKRITAHAHKPGKESQSVAQASFDAWISEGGDYGNNHSVNIYSEGFLASWLLDFDILAKTALSKSYRNAHNQLYQQHRLPKGYDEQDVLSILEQITGDDYQVWWQKNIQGTTKINFNRLLAKAGLKMSYAKNVKDKSSEQSKVWTGLKTKLDNHDLIVSSVEKNSPAWDAGLTTEDVIVAIDGLRLLDNELDNRLKDFKPKQTITVTYFRRDKLITSRLKLAAIPKNKLKIIPIAKASVEQKAFFKAWMGVDFPEKK | failed
MSEHFLQQKYNSISENPIYLFWFLQFCFWSFVSLISLVSLTLWYVQIDVAHLNHTFLQSFVGVVFSLPLYWAFMRCWNTSIFIRVFVSITSVLLISFIWTVIRVELYIRLTGTDEIWTQFGGWYFSSIFIYFCWTGFFHGIRYYQLLQFEHEIMLKKEAEAKTEQLKRLSAQTVARDAKIKMLRYQLNPHFLCNTLNAINSLIECELPEKAQLMTVQLSKFLRYSLDNDPDTKIALEFELKALELYLEIEKTRFGERLQLDFQISEAAKAAFIPSLLLQPLIENSMKHVIAQNEEGGVISLSADVIDNMLVLELSDTGSAKRVDINKIKSKTGRGVGLRNIDERLKALYTDNYVYNLNVRPSGGLKTTIKLPLDSQGEPDIVNQAYNSMKVC | failed
MSEKPWVSTQPLVTKRGLPLNIDRDIAYRPASAVSLSEVAQFITRETGLPVVVAPDALNPSILSSRPGNSGAAAAPPAVTMSNPDNLAALMPTGLAGSLPSGARSLESELLSGTPGLISGIKFSGPVSALLNQVTSRLGLSWHYDPQLQGARITYFDTRTFDVWAFGDDQVIESVVKSGLITSTGSGSNGSGGTSSGTGASGDSGSNQSTTVQIKTSLLSDIENNVKAMLSTQPAGRIFLSRSTGTLTVSDRPEVLNRIASYLQSTNRNITRQVLFNVKIFEVNFTDRDQTAVNWKAVYKSVSGRWGLSLANKVAGISTDAISGSVSILDTSSSPWAGSSAVIQALSEQGRISDVRSPSITTLNLQPAPIQIGNVKSYVASSSTTTTASVGSSTSLTPATITSGFNMMLLPKIIDRDNMLLMISISMSSKPTFTTFTSNGSSVQTADFDTKNAAPKVLLRSGQTLVLTGFEENTENADKTGVGDASFFGLGGSRTRSSLEHHHHHH | failed
